Biological target: the molecule itself
Assay: AUC

B1: R135_50, a variant of Mimivirus R135 lacking the first 50 amino acids (domain or fragment)
chain: TKDNLTGDIVIIGAGAAGSLLAHYLARFSNMKIILLEAGHSHFNDPVVTDPMGFFGKYNPPNENISMSQNPSYSWQGAQEPNTGAYGNRPIIAHGMGFGGSTMINRLNLVVGGRTVFDNDWPVGWKYDDVKNYFRRVLVDINPVRDNTKASITSVALDALRIIAEQQIASGEPVDFLLNKATGNVPNVEKTTPDAVPLNLNDYEGVNSVVAFSSFYMGVNQLSDGNYIRKYAGNTYLNRNYVDENGRGIGKFSGLRVVSDAVVDRIIFKGNRAVGVNYIDREGIMHYVKVNKEVVVTSGAFYTPTILQRSGIGDFTYLSSIGVKNLVYNNPLVGTGLKNHYSPVTITRVHGEPSEVSRFLSNMAANPTNMGFKGLAELGFHRLDPNKPANANTVTYRKYQLMMTAGVGIPAEQQYLSGLSPSSNNLFTLIADDIRFAPEGYIKIGTPNIPRDVPKIFFNTFVTYTPTSAPADQQWPIAQKTLAPLISALLGYDIIYQTLMSMNQTARDSGFQVSLEMVYPLNDLIYKLHNGLATYGANWWHYFVPTLVGDDTPAGREFADTLSKLSYYPRVGAHLDSHQGCSCSIGRTVDSNLKVIGTQNVRVADLSAAAFPPGGNTWATASMIGARAVDLILGFPYLRDLPVNDVPILNVN
With B1 the “stoichiometry N” value was 2.
